Measured values reported in patent publication US20240343770A1 (SUNSHINE LAKE PHARMA, published 2024).

Legend:
human GFRAL (human) = human GFRAL (human) (UniProt Q6UXV0); assay: cell-based or functional assay
[1] = target: the molecule itself; assay: SEC of the purified Fc (self-association, aggregate state)
[2] = target: the molecule itself; assay: SEC of the purified Fc (self-association)

human GFRAL (human), sequence (Q6UXV0 19-394): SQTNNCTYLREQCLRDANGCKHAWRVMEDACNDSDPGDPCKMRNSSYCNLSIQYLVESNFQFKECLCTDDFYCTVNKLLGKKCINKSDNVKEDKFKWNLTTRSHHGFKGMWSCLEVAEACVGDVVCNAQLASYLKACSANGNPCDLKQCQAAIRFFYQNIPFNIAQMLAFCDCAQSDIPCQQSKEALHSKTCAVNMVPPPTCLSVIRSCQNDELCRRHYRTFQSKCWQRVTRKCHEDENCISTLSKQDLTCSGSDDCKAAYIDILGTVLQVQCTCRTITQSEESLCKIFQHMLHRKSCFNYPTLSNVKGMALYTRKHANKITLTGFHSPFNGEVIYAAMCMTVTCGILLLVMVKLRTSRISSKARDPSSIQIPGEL

Row | Molecule | binding result [1] | further results
1 | native GDF15 (from UniProt Q99988 197-308) (ligand) |  | Relative activity ratio (native GDF15 EC50 : construct EC50), phospho-ERK1/2 HTRF in HEK293T cells expressing human GFRAL and RET (human GFRAL (human)): 1
2 | IgG4 Fc (AA, K439E) (other, One Fc polypeptide) EAAGGPSVFLFPPKPKDTLMISRTPEVTCVVVDVSQEDPEVQFNWYVDGVEVHNAKTKPREEQFNSTYRVVSVLTVLHQDWLNGKEYKCKVSNKGLPSSIEKTISKAKGQPREPQVYTLPPSQEEMTKNQVSLTCLVKGFYPSDIAVEWESNGQPENNYKTTPPVLDSDGSFFLYSRLTVDKSRWQEGNVFSCSVMHEALHNHYTQESLSLSLG | binds | 
3 | IgG4 Fc (AA, K439D) (other, One Fc polypeptide) EAAGGPSVFLFPPKPKDTLMISRTPEVTCVVVDVSQEDPEVQFNWYVDGVEVHNAKTKPREEQFNSTYRVVSVLTVLHQDWLNGKEYKCKVSNKGLPSSIEKTISKAKGQPREPQVYTLPPSQEEMTKNQVSLTCLVKGFYPSDIAVEWESNGQPENNYKTTPPVLDSDGSFFLYSRLTVDKSRWQEGNVFSCSVMHEALHNHYTQDSLSLSLG | binds | 
4 | IgG4 Fc (AA, F405Q/Y407E) (other, Control Fc; found as a monomer by SEC; also called monomeric Fc molecule) EAAGGPSVFLFPPKPKDTLMISRTPEVTCVVVDVSQEDPEVQFNWYVDGVEVHNAKTKPREEQFNSTYRVVSVLTVLHQDWLNGKEYKCKVSNKGLPSSIEKTISKAKGQPREPQVYTLPPSQEEMTKNQVSLTCLVKGFYPSDIAVEWESNGQPENNYKTTPPVLDSDGSFQLESRLTVDKSRWQEGNVFSCSVMHEALHNHYTQKSLSLSLG |  | binding result [2]: no binding
